Several values for one entry are separate records, joined by “and”; a condition that tells them apart may be missing. Equal entries are not always repeated.
What was measured:
[1] = target: HIV-1 envelope of gp160 clone AG-010.c11 (HIV-1); experiment: capture ELISA, plate 2, mAb 2.5 ug/ml
[2] = target: HIV-1 envelope of gp160 clone B-Acute-010.c08 (HIV-1); experiment: capture ELISA, plate 2, mAb 2.5 ug/ml
[3] = target: HIV-1 envelope of gp160 clone AG-010.c14 (HIV-1); experiment: capture ELISA, plate 2, mAb 2.5 ug/ml
[4] = target: HIV-1 envelope of gp160 clone B-Acute-008.c11 (HIV-1); experiment: capture ELISA, plate 2, mAb 2.5 ug/ml
[5] = target: HIV-1 JRCSF envelope (HIV-1) (UniProt P20871); experiment: capture ELISA, plate 2, mAb 2.5 ug/ml
[6] = target: HIV-1 envelope clone F1-002.c11 (multiclade gp160 clone panel) (HIV-1); experiment: capture ELISA, plate 2, mAb 2.5 ug/ml
[7] = target: HIV-1 envelope clone G-011.c05 (multiclade gp160 clone panel) (HIV-1); experiment: capture ELISA, plate 2, mAb 2.5 ug/ml
[8] = target: HIV-1 envelope of gp160 clone B-Acute-010.c09 (HIV-1); experiment: capture ELISA, plate 2, mAb 2.5 ug/ml
[9] = target: HIV-1 envelope clone BF-002.c08 (multiclade gp160 clone panel) (HIV-1); experiment: capture ELISA, plate 2, mAb 2.5 ug/ml
[10] = target: HIV-1 16055 envelope (HIV-1); experiment: capture ELISA, plate 2, mAb 2.5 ug/ml
[11] = target: HIV-1 envelope of gp160 clone AG-010.c11 (HIV-1); experiment: capture ELISA, plate 2, mAb 0.3 ug/ml
[12] = target: HIV-1 JRFL envelope (HIV-1); experiment: capture ELISA, plate 2, mAb 0.3 ug/ml
[13] = target: HIV-1 envelope of gp160 clone B-Chronic-014.c02 (HIV-1); experiment: capture ELISA, plate 2, mAb 0.3 ug/ml
[14] = target: HIV-1 envelope clone F1-002.c16 (multiclade gp160 clone panel) (HIV-1); experiment: capture ELISA, plate 2, mAb 0.3 ug/ml
[15] = target: HIV-1 envelope of gp160 clone B-Acute-010.c08 (HIV-1); experiment: capture ELISA, plate 2, mAb 0.3 ug/ml
[16] = target: HIV-1 envelope of gp160 clone B-Acute-009-c08 (HIV-1); experiment: capture ELISA, plate 2, mAb 0.3 ug/ml
[17] = target: HIV-1 envelope clone BF-002.c05 (multiclade gp160 clone panel) (HIV-1); experiment: capture ELISA, plate 2, mAb 0.3 ug/ml
[18] = target: HIV-1 envelope of gp160 clone AG-010.c14 (HIV-1); experiment: capture ELISA, plate 2, mAb 0.3 ug/ml
[19] = target: HIV-1 envelope of gp160 clone B-Acute-008.c11 (HIV-1); experiment: capture ELISA, plate 2, mAb 0.3 ug/ml
[20] = target: HIV-1 JRCSF envelope (HIV-1) (UniProt P20871); experiment: capture ELISA, plate 2, mAb 0.3 ug/ml
[21] = target: HIV-1 envelope clone F1-002.c11 (multiclade gp160 clone panel) (HIV-1); experiment: capture ELISA, plate 2, mAb 0.3 ug/ml
[22] = target: HIV-1 envelope clone G-011.c02 (multiclade gp160 clone panel) (HIV-1); experiment: capture ELISA, plate 2, mAb 0.3 ug/ml
[23] = target: HIV-1 envelope clone G-011.c05 (multiclade gp160 clone panel) (HIV-1); experiment: capture ELISA, plate 2, mAb 0.3 ug/ml
[24] = target: HIV-1 envelope of gp160 clone B-Acute-010.c09 (HIV-1); experiment: capture ELISA, plate 2, mAb 0.3 ug/ml
[25] = target: HIV-1 envelope clone BF-002.c08 (multiclade gp160 clone panel) (HIV-1); experiment: capture ELISA, plate 2, mAb 0.3 ug/ml
[26] = target: HIV-1 16055 envelope (HIV-1); experiment: capture ELISA, plate 2, mAb 0.3 ug/ml
[27] = target: BG505 envelope (gp120 monomer released from lysed pseudovirus) (HIV-1); experiment: antigen capture ELISA, mAb 0.8 ug/ml, plate 1
[28] = target: aMLV envelope (from lysed pseudovirus); experiment: antigen capture ELISA, mAb 0.8 ug/ml, plate 1
[29] = target: HIV-1 envelope of gp160 clone AG-010.c11 (HIV-1); experiment: capture ELISA, plate 1, mAb 0.3 ug/ml
[30] = target: HIV-1 JRFL envelope (HIV-1); experiment: capture ELISA, plate 1, mAb 0.3 ug/ml
[31] = target: HIV-1 envelope clone BF-002.c05 (multiclade gp160 clone panel) (HIV-1); experiment: capture ELISA, plate 1, mAb 0.3 ug/ml
[32] = target: HIV-1 envelope of gp160 clone B-Acute-008.c11 (HIV-1); experiment: capture ELISA, plate 1, mAb 0.3 ug/ml
[33] = target: HIV-1 envelope clone F1-002.c11 (multiclade gp160 clone panel) (HIV-1); experiment: capture ELISA, plate 1, mAb 0.3 ug/ml
[34] = target: HIV-1 envelope clone G-011.c02 (multiclade gp160 clone panel) (HIV-1); experiment: capture ELISA, plate 1, mAb 0.3 ug/ml
[35] = target: HIV-1 envelope of gp160 clone B-Acute-010.c09 (HIV-1); experiment: capture ELISA, plate 1, mAb 0.3 ug/ml
[36] = target: HIV-1 envelope clone BF-002.c08 (multiclade gp160 clone panel) (HIV-1); experiment: capture ELISA, plate 1, mAb 0.3 ug/ml
[37] = target: HIV-1 16055 envelope (HIV-1); experiment: capture ELISA, plate 1, mAb 0.3 ug/ml
[38] = target: HIV-1 JRCSF envelope (HIV-1) (UniProt P20871); experiment: capture ELISA, plate 1, mAb 0.3 ug/ml

Substance | ELISA OD [1] | ELISA OD [2] | ELISA OD [3] | ELISA OD [4] | ELISA OD [5] | ELISA OD [6] | ELISA OD [7] | ELISA OD [8] | ELISA OD [9] | ELISA OD [11] | ELISA OD [13] | ELISA OD [14] | ELISA OD [15] | ELISA OD [16] | ELISA OD [17] | ELISA OD [18] | ELISA OD [19] | ELISA OD [20] | ELISA OD [21] | ELISA OD [22] | also measured
PGT151 (antibody) | 0.08 OD | 0.148 OD | 0.149 OD | 0.266 OD | 0.078 OD and 0.068 OD | 0.115 OD | 0.086 OD | 0.095 OD | 0.067 OD | 0.075 OD | 0.216 OD | 0.107 OD | 0.149 OD | 0.063 OD | 0.1 OD | 0.121 OD | 0.234 OD | 0.069 OD and 0.065 OD | 0.058 OD | 0.116 OD | ELISA OD [10]: 0.082 OD and 0.076 OD; ELISA OD [12]: 0.073 OD and 0.088 OD; ELISA OD [23]: 0.057 OD; ELISA OD [24]: 0.072 OD; ELISA OD [25]: 0.09 OD; ELISA OD [26]: 0.054 OD and 0.096 OD; ELISA OD [27]: 0.054 OD; ELISA OD [28]: 0.054 OD and 0.05 OD; ELISA OD [29]: 0.055 OD; ELISA OD [30]: 0.074 OD and 0.055 OD; ELISA OD [31]: 0.08 OD; ELISA OD [32]: 0.138 OD; ELISA OD [33]: 0.054 OD; ELISA OD [34]: 0.053 OD; ELISA OD [35]: 0.052 OD; ELISA OD [36]: 0.055 OD; ELISA OD [37]: 0.053 OD and 0.058 OD
PGV04 (antibody) | 0.151 OD | 1.57 OD | 0.283 OD | 0.078 OD | 1.87 OD and 2.17 OD | 0.156 OD | 0.288 OD | 2.1 OD | 2.79 OD | 0.103 OD | 1.52 OD | 0.142 OD | 0.303 OD | 0.075 OD | 1 OD | 0.096 OD | 0.129 OD | 0.525 OD and 0.588 OD | 0.064 OD | 0.189 OD | ELISA OD [23]: 0.123 OD; ELISA OD [24]: 0.424 OD; ELISA OD [25]: 0.758 OD; ELISA OD [27]: 0.745 OD; ELISA OD [28]: 0.053 OD and 0.117 OD; ELISA OD [29]: 0.07 OD; ELISA OD [31]: 0.881 OD; ELISA OD [32]: 0.055 OD; ELISA OD [38]: 0.481 OD and 0.603 OD; ELISA OD [33]: 0.082 OD; ELISA OD [34]: 0.167 OD; ELISA OD [35]: 0.432 OD; ELISA OD [36]: 0.663 OD

— US20150065381A1
